Source: US20200353078A1 (AstraZeneca / MedImmune, published 2020)
Changes are numbered by the printed parent chain. Values belong to the binder of their own block, whether it stands above or below them.

How the values were obtained:
[1] = biological target: T1, Human IL-33 (Axxora/Adipogen AG-40B-0038) (human, UniProt O95760 112-270, limits assumed); experiment: cell-based or functional assay
T1 sequence (looked up): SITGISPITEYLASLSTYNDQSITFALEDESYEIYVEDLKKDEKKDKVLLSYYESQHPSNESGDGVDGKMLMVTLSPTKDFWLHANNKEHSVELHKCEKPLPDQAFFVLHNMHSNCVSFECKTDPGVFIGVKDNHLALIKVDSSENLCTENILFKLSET

Human IL-33 Flag®His = biological target: T2, Human IL-33 Flag®His (human); experiment: ELISA, biotinylated antigen on streptavidin plate, anti-human IgG HRP
T2 construct: Mature IL-33 with C-terminal FLAG 10xHis tag, from E. coli; biotinylated via free cysteines where used biotinylated; also called Mature Human IL-33_FH; human IL-33 FH
T2 chain: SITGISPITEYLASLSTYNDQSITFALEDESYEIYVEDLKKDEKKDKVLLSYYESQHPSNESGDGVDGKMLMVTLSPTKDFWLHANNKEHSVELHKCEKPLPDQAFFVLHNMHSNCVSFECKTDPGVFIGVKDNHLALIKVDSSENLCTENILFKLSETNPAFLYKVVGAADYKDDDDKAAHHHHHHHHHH
Procedure: (§1) 96-well Greiner polypropylene plates (Greiner, 650201) were used for dilution preparation. Generally, each dilution was prepared in duplicate. IgG dilutions were allowed to block in PBS-M for 1 hour at room temperature before being used directly in ELISA experiments.
(§2) Streptavidin plates (Thermo Scientific, AB-1226) were coated with biotinylated antigen at 0.5 μg/ml in PBS and incubated overnight at 4° C. Plates were washed 3× with PBS and blocked with 300 μl/well blocking buffer (PBS-M) for 1 hour. Plates were washed 1× with PBS and blocked samples added, 50 μl/well for 1 hour at room temperature. […] Plates were washed 3× with PBS-T and developed with TMB, 50 μl/well (Sigma, T0440). The reaction was quenched with 50 μl/well 0.1M H2504 before reading on an EnVision™ plate reader, or similar equipment, at 450 nm.
(§3) Species cross-reactivity of anti-IL-33 antibodies was determined using a plate-based ELISA. Streptavidin plates (Thermo Scientific, AB-1226) were coated with biotinylated antigen at 0.5 μg/ml in PBS. Binding of purified IgG preparations was detected with anti-human IgG HRP (Sigma, A0170).

[2] = biological target: T3, Cynomolgus IL-33 Flag®His (cynomolgus monkey); experiment: as above
T3 construct: C-terminal FLAG 10xHis tag, E. coli; also called Mature Cynomolugus IL-33; cyno IL-33 FH
T3 chain: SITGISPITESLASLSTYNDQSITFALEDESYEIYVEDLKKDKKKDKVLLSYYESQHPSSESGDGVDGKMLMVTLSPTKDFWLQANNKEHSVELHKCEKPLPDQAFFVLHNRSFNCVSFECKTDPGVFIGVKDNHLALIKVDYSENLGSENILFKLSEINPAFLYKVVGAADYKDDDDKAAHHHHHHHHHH
Procedure: as §1, §2, §3

Mouse IL-33 Flag®His = biological target: T4, Mouse IL-33 Flag®His (mouse); experiment: as above
T4 construct: C-terminal FLAG 10xHis tag, E. coli; also called Mature Mouse IL-33_FH; mouse IL-33 FH
T4 chain: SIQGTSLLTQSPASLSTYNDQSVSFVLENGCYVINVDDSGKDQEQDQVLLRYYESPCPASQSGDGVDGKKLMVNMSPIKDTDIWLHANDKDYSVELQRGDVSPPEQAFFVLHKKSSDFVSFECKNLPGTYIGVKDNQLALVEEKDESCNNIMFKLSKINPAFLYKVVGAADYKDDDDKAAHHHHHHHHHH
Procedure: as §1, §2, §3

[3] = biological target: T5, Human IL-33 (Axxora/Alexis ALX-522-098) (human, UniProt O95760 112-270); experiment: cell-based or functional assay
T5 sequence (looked up): T1 sequence (looked up)

His10/Avi Human IL33-01 [4] = biological target: T6, His10/Avi Human IL33-01 (human); experiment: HTRF epitope competition, scFv titrated; competitor DyLight labelled 33v20064 IgG
T6 construct: Wild type mature IL-33 with N-terminal 10xHis, Avitag and Factor Xa site; biotinylated by BirA on the Avitag where used biotinylated; reduced form unless treated; also called N-terminal His Avi IL-33; His-Avi human IL-33 wild type
T6 chain: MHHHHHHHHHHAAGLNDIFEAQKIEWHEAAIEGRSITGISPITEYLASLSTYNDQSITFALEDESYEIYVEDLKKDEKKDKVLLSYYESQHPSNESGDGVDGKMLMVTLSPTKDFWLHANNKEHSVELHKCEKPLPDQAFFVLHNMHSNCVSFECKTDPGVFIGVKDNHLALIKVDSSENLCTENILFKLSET
Procedure: (§4) This was followed by the addition of 2.5 microlitres of a solution containing 0.8 nM biotinylated human IL-33-01 combined with 0.75 nM streptavidin cryptate detection (Cisbio International, 610SAKLB) for the human assay or a solution containing 4 nM biotinylated cynomolgus IL-33 combined with 1.5 nM streptavidin cryptate detection (Cisbio International, 610SAKLB) for the cynomolgus assay. All dilutions were performed in assay buffer containing 0.8 M potassium fluoride (VWR, 26820.236) and 0.1% bovine serum albumin (BSA, PAA, K05-013) in Dulbeccos PBS (Invitrogen, 14190185). Assay plates were incubated for 1 hour at room temperature and time resolved fluorescence was read at 620 nm and 665 nm emission wavelengths using an EnVision plate reader (Perkin Elmer). Data were analysed by calculating the 665/620 nm ratio followed by the % Delta F values for each sample. The 665/620 nm ratio was used to correct for sample interference using Equation 1. The % Delta F for each sample was then calculated using Equation 2. The negative control (non-specific binding) was defined by replacing biotinylated IL-33 combined with streptavidin cryptate detection with streptavidin cryptate detection only. The % Delta F values were subsequently used to calculate % specific binding as described in Equation 3.
(§5) Unique scFv were expressed again in bacteria and purified by affinity chromatography (as described in WO01/66754). Purified anti-IL-33 antibody samples were tested for potency of inhibition by competing a dilution series of the purified preparation against DyLight labelled 33v20064 IgG or DyLight labelled 33_640027 IgG for binding to biotinylated His Avi IL33-01, biotinylated His Avi IL33-11 or biotinylated His Avi cynomolgus IL-33. Methods are as described in the previous section.

His10/Avi Human IL33-11 = biological target: T7, His10/Avi Human IL33-11 (human); experiment: as above
T7 construct: C208S, C259S mutant (already in the entry), N-terminal His10/Avitag; also called His-Avi mutant IL-33; SCCS
T7 chain: T6 chain with C131S, C182S
Procedure: as §4, §5

His10/Avi Cyno IL-33 [5] = biological target: T8, His10/Avi Cyno IL-33 (cynomolgus monkey); experiment: as above
T8 construct: also called Cynomolgus 10His Avitag IL-33; biotinylated His Avi cynomolgus IL-33
T8 chain: T6 chain with E77K, N94S, H118Q, M146R, H147S, S148F, S177Y, C182G, T183S, T193I
Procedure: as §4, §5

His10/Avi Human IL33-01 [6] = biological target: T6, His10/Avi Human IL33-01; experiment: HTRF epitope competition, scFv titrated; competitor DyLight labelled 33_640027 IgG
His10/Avi Cyno IL-33 [7] = biological target: T8, His10/Avi Cyno IL-33; experiment: as above
[8] = biological target: T9, Full-length human IL-33 (amino acids 1-270), HEK293-EBNA cell lysate (human, UniProt O95760 1-270); experiment: cell-based or functional assay
T9 sequence (looked up): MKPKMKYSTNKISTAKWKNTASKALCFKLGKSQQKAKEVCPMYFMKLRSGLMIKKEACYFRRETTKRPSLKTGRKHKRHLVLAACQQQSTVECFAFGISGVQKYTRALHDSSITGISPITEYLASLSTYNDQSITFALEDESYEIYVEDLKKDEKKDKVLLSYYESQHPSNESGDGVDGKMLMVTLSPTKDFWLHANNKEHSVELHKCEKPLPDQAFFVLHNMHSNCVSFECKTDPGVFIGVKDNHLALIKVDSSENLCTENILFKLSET

His10/Avi Human IL33-01 [9] = biological target: T6, His10/Avi Human IL33-01; experiment: HTRF epitope competition, IgG titrated; competitor DyLight labelled 33_640117 IgG; 1 hour
Procedure: (§6) As the epitope competition assay utilising 33_640027 reached its limit of sensitivity, an assay using 33_640117 was used for testing purified scFv samples. The assay was essentially as described for the 33v20064 competition assay with the following modifications: 2.5 nM DyLight labelled 33_640117 was prepared and 2.5 microlitres added to the assay plates. This was followed by the addition of 2.5 microlitres of a solution containing 0.12 nM biotinylated human IL-33-01 combined with 0.75 nM streptavidin cryptate detection (Cisbio International, 610SAKLB) for the human assay or a solution containing 0.24 nM biotinylated cynomolgus IL-33 combined with 1.5 nM streptavidin cryptate detection (Cisbio International, 610SAKLB) for the cynomolgus assay. Fluorescence was read after one hour and overnight incubation.
(§7) The ability of anti-IL-33 antibodies to inhibit the binding of biotinylated His Avi human IL-33 or cynomolgus His Avi IL-33 to the DyLight labelled 33_640117 IgG was assessed in a biochemical HTRF® (Homogeneous Time-Resolved Fluorescence, Cisbio International) competition assays as described above.

His10/Avi Cyno IL-33 [10] = biological target: T8, His10/Avi Cyno IL-33; experiment: as above
Procedure: as §6, §7

His10/Avi Human IL33-01 [11] = biological target: T6, His10/Avi Human IL33-01; experiment: HTRF epitope competition, IgG titrated; competitor DyLight labelled 33_640117 IgG; overnight
Procedure: as §6, §7

B2: IL330099 IgG (antibody, V domains shown)
VH: QVQLQQSGAEVKKPGASVKVSCKASGYTFTSFYMNWVRQAPGQGLEWMGIISPRGGTTSYAQNFQGRVTMTRDTSTSTVYMELSGLRSDDTAVYYCATESFYYGSGTYSGDYYLYSGMADWGKGTLVTVSS
VL: SSELTQDPAVSAALGQTVRITCQGDSLRSYYASWYQQKPGQAPVLVIYGKNDRPSGIPDRFSGSSSGNTASLTITGAQAEDEADYYCNSRDSSGNHVVFGGGTKLTVL
notes: IgG1 or IgG1-TM
IC50, Mast cell IL-6 production [1]: 1220 nM
EC50 (Human IL-33 Flag®His): 0.4 nM
EC50 [2]: 0.35 nM
EC50 (Mouse IL-33 Flag®His): 0.38 nM

B4: 33_640047 scFv (scFv, V domains shown)
VH: EVQLLESGGGLVQPGGSLRLSCAASGFTFSSYAMSWVRQAPGKGLEWVSAISGSGGSTYYADSVKGRFTISRDNSKNTLYLQMNSLRAEDTAVYYCTRLKFMQLWGGGLRYPFGYWGQGTMVTVSS
VL: SYVLTQPPSVSVSPGQTASITCSGERMGDKYAAWYQQKPGQSPVLVIYQDTKRPSGIPERFSGSNSGNTATLTISGTQAMDEADYYCQVWDSSTGVFGGGTKVTVL
notes: Single chain Fv; also called ZZ1F7P-E01
IC50 (His10/Avi Human IL33-01 [4]): 0.4 nM
IC50 (His10/Avi Human IL33-11): 0.5 nM
IC50 (His10/Avi Cyno IL-33 [5]): 2.7 nM
IC50 (His10/Avi Human IL33-01 [6]): 2.3 nM
IC50 (His10/Avi Cyno IL-33 [7]): 8.8 nM

B5: 33v20064 IgG1 (antibody, V domains shown)
VH: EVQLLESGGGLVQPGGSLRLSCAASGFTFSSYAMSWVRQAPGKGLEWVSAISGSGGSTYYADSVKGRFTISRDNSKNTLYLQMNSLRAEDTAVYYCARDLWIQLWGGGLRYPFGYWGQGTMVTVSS
VL: B4 VL with S1L, Y2P, T17K, V44I, A79D
notes: IgG1; also called ZZ1EBX-E05
IC50, Huvec IL-8 assay vs. full length IL-33 cell lysate [8]: 185 nM
IC50 (His10/Avi Human IL33-01 [9]): 150 nM
IC50 (His10/Avi Cyno IL-33 [10]): 788 nM
IC50 (His10/Avi Human IL33-01 [11]): 689 nM

Second part, the binder after the results:

IC50, Mast cell IL-6 production [1]: 298 nM
EC50 (Human IL-33 Flag®His): 0.23 nM
EC50 [2]: 0.35 nM
EC50 (Mouse IL-33 Flag®His): 0.17 nM
B1: IL330149 IgG (antibody, V domains shown)
VH: EVQLLESGGGLVQPGGSLRLSCAASGFTFSSYAMSWVRQAPGKGLEWVSAISGSGGSTYYADSVKGRFTISRDNSKNTLYLQMNSLRAEDTAVYYCVRTLAYSTSWFFDYWGRGTLVTVSS
VL: SYELTQPPAVSVSPGQTARITCSGDALPKKYAYWYQQKSGQAPVLVIYEDAKRPSGIPERFSGSSSGTMATLTVSGAQVEDEADYYCYSTDSSGPVFGGGTKLTVL
notes: IgG1 or IgG1-TM; also called IL33149

IC50 (geomean), Mast cell IL-6 production [1]: 283 nM
IC50, TF-1 proliferation [3]: 94 nM
EC50 (Human IL-33 Flag®His): 0.86 nM
EC50 [2]: 1.09 nM
EC50 (Mouse IL-33 Flag®His): 0.83 nM
B3: IL330107 IgG (antibody, V domains shown)
VH: QMQLVQSGGGVVQPGGSLRLSCAASGFTFSSYAMSWVRQAPGKGLEWVSAISGSGGSTYYADSVKGRFTISRDNSKNTLYLQMNSLRAEDTAVYYCAKPFPSYWYFDLWGKGTLVTVSS
VL: SYVLTQPPSVSVSPGQTARITCSGDALPKQYAYWYQQKPGQAPVLVIYKDSERPSGIPERFSGSSSGTTVTLTISGVQAEDEADYYCQSADSSGTYRVFGGGTQLTVL
notes: IgG1 or IgG1-TM
